Experiment [1] addresses bovine serum albumin (bovine) (UniProt P02769). Nature of the experiment: ELISA; uncoated (BSA-blocked) well incubated with Tat, detected with anti-Tat.
Experiment [2] addresses HIV-1 Tat protein (recombinant, native, biologically active) (HIV-1) (UniProt Q73370). Put plainly: ELISA; plate coated with Tat, antibody used for detection.
A further experiment deals with oxidised Tat (HIV-1) (UniProt Q73370). Put plainly: ELISA; wells coated with oxidised Tat, antibody used for detection.
The target of experiment [3] is Tat-cys22 (transactivation mutant, cysteine 22 substituted by glycine) (HIV-1). Put plainly: ELISA; wells coated with Tat-cys22, antibody used for detection.
Experiment [4] has as its target HIV-1 Tat protein (recombinant, native, biologically active) (HIV-1) (UniProt Q73370). Nature of the experiment: ELISA; wells coated with native Tat, antibody used for detection.
The target in experiment [5] is Tat (83-102) peptide (C-terminal domain) (HIV-1). Put plainly: ELISA; plate coated with Tat peptide, antibody used for detection.
Experiment [6] concerns the target Tat (21-40) peptide (cysteine-rich region-transactivation domain) (HIV-1). Described as above.
Experiment [7] deals with Tat (73-86) peptide (HIV-1). The experiment is described as above.
The target in experiment [8] is Tat (36-50) peptide (core region) (HIV-1). The description is as above.
Experiment [9] addresses Tat (21-58) peptide (cysteine, core, and basic regions) (HIV-1). Described as above.
Experiment [10] addresses Tat (65-80) peptide (RGD sequence) (HIV-1). Described as above.
The target in experiment [11] is Tat (46-60) peptide (basic region-nuclear localisation signal) (HIV-1). The experiment is described as above.
Experiment [12] addresses Tat (56-70) peptide (glutamine-rich region) (HIV-1). The experiment is described as above.
The target of experiment [13] is Tat (1-20) peptide (N-terminal domain) (HIV-1). The description is as above.

Sequence of bovine serum albumin (bovine) (P02769 25-607 limits assumed): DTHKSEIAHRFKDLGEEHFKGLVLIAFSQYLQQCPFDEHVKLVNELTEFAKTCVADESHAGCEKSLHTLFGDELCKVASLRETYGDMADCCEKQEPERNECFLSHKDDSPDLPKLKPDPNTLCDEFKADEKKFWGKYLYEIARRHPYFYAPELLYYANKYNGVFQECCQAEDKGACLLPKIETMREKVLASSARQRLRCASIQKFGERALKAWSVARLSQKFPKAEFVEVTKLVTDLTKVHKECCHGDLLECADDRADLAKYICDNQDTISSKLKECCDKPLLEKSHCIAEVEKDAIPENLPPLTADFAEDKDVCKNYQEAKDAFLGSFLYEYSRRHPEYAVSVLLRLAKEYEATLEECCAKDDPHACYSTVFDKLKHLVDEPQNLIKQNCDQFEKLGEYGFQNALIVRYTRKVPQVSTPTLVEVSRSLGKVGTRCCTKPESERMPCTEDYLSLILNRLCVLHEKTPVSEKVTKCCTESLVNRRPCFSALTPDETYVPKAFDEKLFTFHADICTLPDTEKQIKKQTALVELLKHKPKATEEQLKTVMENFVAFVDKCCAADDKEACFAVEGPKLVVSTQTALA

As for “HIV-1 Tat protein (recombinant, native, biologically active) (from UniProt Q73370 1-100)”, in [1], the ELISA OD came out at 0.431 OD.
As to “monoclonal anti-CCR5 antibody (Pharmingen), directed against the CCR5 second extracellular loop”, the ELISA signal stood at 1.45 in experiment [2]; 0.128 with oxidised Tat (HIV-1); 0.75 in [3]; 1.24 in experiment [4]; 0 in experiment [5]; 0 in experiment [6]. Further, the ELISA signal came out at 0 in [7]; 0 in experiment [8]; 3 in [9]; 0 in [10]; 0.466 in experiment [11]; 0.147 in experiment [12]. Also, in experiment [13], the ELISA signal turned out to be 0.
Regarding CTR isot. (isotype control antibody), the ELISA signal in experiment [2] is 0.081; with oxidised Tat (HIV-1), 0.016; in experiment [3] it was 0.026; in [4], 0.051; in experiment [5], 0; in experiment [6] it was 0.082. Also, the ELISA signal was found to be 0.019 in experiment [7]; 0 in experiment [8]; 0.108 in experiment [9]; 0 in [10]; 0.063 in experiment [11]; 0 in experiment [12]. Also, the ELISA signal in [13] turned out to be 0.006.

The record behind these values is patent US9969780.
